Experimental findings from US10017787B2, “Production of alkenes from 3-hydroxycarboxylic acids via 3-hydroxycarboxyl-nucleotidylic acids” (Global Bioenergies, priority 2013, dated 2018) are described below.

Series [1] relates to (R,S)-3-hydroxybutyrate. The experiment in a line: Adenylation of 3-hydroxybutyrate with ATP or ADP as co-substrates, spectrophotometric assay. In kind it is biochemical. The settings on record: 5 mM (R,S)-3-hydroxybutyrate, 0-3.2 mM ATP or ADP, 0.1 mg/ml enzyme (FIGS. 15 and 16). The method, then: Spectrophotometric assay was performed according to the procedure described in Example 2. The specificity of acyl-CoA synthase from M. algicola and AMP-dependent synthetase/ligase from Burkholderia sp. with respect to co-substrates was analyzed. Standard reaction contained:
0.1 mg/ml of purified enzyme
2-amino-6-mercapto-7-methylpurine ribonucleoside (MESG), purine nucleoside phosphorylase (PNP) and inorganic pyrophosphatase were added to the reaction mix according to the procedure described in the EnzCheck® Pyrophosphatase Assay Kit. A reaction mixture without inorganic pyrophosphatase was used for assays with ADP as co-substrate. Control assays were performed in which either no enzyme was added, or no 3-hydroxybutyrate was added. Each assay was started with the addition of co-substrate (ATP or ADP). Each sample was continuously monitored for the increase of 2-amino-6-mercapto-7-methylpurine at 360 nm on a SpectraMax Plus 384 UV/Vis Microplate Reader (Molecular Devices).

Series [2] deals with (R,S)-3-hydroxybutyrate. The experiment in a line: Propylene production from 3-hydroxybutyrate, M. aquaeolei enzyme and OleC proteins, GC-FID. The settings on record: 50 mM (R,S)-3-hydroxybutyrate, 10 mM ATP, 2 mg/ml each enzyme, 18 hours at 37° C. In kind it is biochemical. Here is the method:
The studied enzymes were produced and purified according to the procedure described in Example 1. The studied reaction was carried out under the following conditions
2 mg/ml purified AMP-dependent synthetase/ligase from M. aquaeolei
2 mg/ml purified OleC protein from Shewanella amazonensis or from Chloroflexus aurantiacus
Reaction volume was 0.3 ml.
For the no enzymes control, buffer was used in place of enzymes.
Controls reactions without ATP were realized in parallel.
The reaction mixtures were incubated in 2 ml sealed vials (Interchim) for 18 hours at 37° C. with shaking. Propylene production was analyzed by Gas Chromatography (GC) using Bruker 450-GC gas chromatograph equipped with Flame Ionization Detector (FID). Nitrogen was used as carrier gas with a flow rate of 6 ml/min. Volatile compounds were chromatographically separated on GS-Alumina column (30 m×0.53 mm ID) (Agilent) using an isothermal mode at 130° C. The enzymatic reaction product were identified by comparison with standard of propylene (Sigma-Aldrich), the retention time of propylene in these conditions was 1.57 min.

Substrate in series [3]: CC(O)CC(=O)O
The experiment in a line: purified protein, by the assay type. The settings on record: other: 0-10 mM 3-hydroxycarboxylate, 2 mM ATP, 0.1 mg/ml enzyme, pH 7.5.

Substrate in series [4]: CC(C)(O)CC(=O)O
The experiment in a line: purified protein, by the assay type. The settings on record: other: 0-10 mM 3-hydroxycarboxylate, 2 mM ATP, 0.1 mg/ml enzyme, pH 7.5.

The subject of the next series is 3-hydroxyisovalerate. The experiment in a line: Isobutene production from 3-hydroxyisovalerate, M. aquaeolei enzyme and OleC proteins, GC-FID. The settings on record: 50 mM 3-hydroxyisovalerate, 10 mM ATP, 0.6 mg each enzyme in 0.3 ml, 18 hours at 37° C. It is filed as biochemical. The method, then: The studied reaction was carried out under the following conditions
Reaction volume was 0.3 ml
0.6 mg of AMP-dependent synthetase/ligase from M. aquaeolei and 0.6 mg of OleC protein were added to 0.3 ml of reaction mixture. A reaction mixture containing only 0.6 mg of AMP-dependent synthetase/ligase from M. aquaeolei was used as reference. The assays were incubated in 2 ml sealed vials (Interchim) for 18 hours at 37° C. with shaking. Isobutene production was analyzed by Gas Chromatography (GC) using Bruker 450-GC gas chromatograph equipped with Flame Ionization Detector (FID). Nitrogen was used as carrier gas with a flow rate of 6 ml/min. Volatile compounds were chromatographically separated on GS-Alumina column (30 m×0.53 mm ID) (Agilent) using an isothermal mode at 130° C. The enzymatic reaction product were identified by comparison with standard of isobutene (Sigma-Aldrich), the retention time of isobutene in these conditions was 2.40 min.

Substrate in series [5]: C=CC(O)CC(=O)O
The experiment in a line: Kinetic parameters of adenylation of 3-hydroxycarboxylates, continuous spectrophotometric diphosphate release assay. It is filed as biochemical, Marinobacter aquaeolei. The settings on record: other: 0-10 mM 3-hydroxycarboxylate, 2 mM ATP, 0.1 mg/ml enzyme, pH 7.5. The method, then:
(§1) The genes coding for the adenylate-forming enzymes were synthesized and the corresponding enzymes were further produced according to the procedure described in Example 1. 3-hydroxypropionic acid (TCI) stock solution was prepared in water with the pH adjusted to 7.5 with 1 M NaOH. The release of diphosphate which is associated with 3-hydroxypropionyl-adenylate formation from 3-hydroxypropionate was quantified using the EnzCheck® Pyrophosphatase Assay Kit (E6645, Life Technologies).
(§2) In this assay, diphosphate was hydrolyzed to inorganic phosphate by inorganic pyrophosphatase and phosphate production coupled to phosphorolysis of the 2-amino-6-mercapto-7-methylpurine ribonucleoside (MESG), catalyzed by the enzyme purine nucleoside phosphorylase (PNP). The chromophoric product, 2-amino-6-mercapto-7-methylpurine, was monitored by absorbance at 360 nm (FIG. 9).
(§3) Kinetic parameters were determined by using the spectrophotometric assay described in Example 2. Reaction mixture for the assay of adenylation activity contained:
(§4) 0-10 mM 3-hydroxycarboxylate
(§5) 0.1 mg/ml of purified AMP-dependent synthetase/ligase from M. aquaeolei
(§6) 2-amino-6-mercapto-7-methylpurine ribonucleoside (MESG), purine nucleoside phosphorylase (PNP) and inorganic pyrophosphatase were added to the reaction mix according to the procedure described in the EnzCheck® Pyrophosphatase Assay Kit.

Substrate in series [6]: O=C(O)CCO
The series is described as above. In kind it is biochemical, Marinobacter aquaeolei. The settings on record: other: 0-10 mM 3-hydroxycarboxylate, 2 mM ATP, 0.1 mg/ml enzyme, pH 7.5. Here is the method:
as §1, §2, §3, §4, §5, §6

Substrate in series [7]: CC[C@@H](O)CC(=O)O
Described as above. In kind it is biochemical, Marinobacter aquaeolei. The settings on record: other: 0-10 mM 3-hydroxycarboxylate, 2 mM ATP, 0.1 mg/ml enzyme, pH 7.5. Here is the method:
as §1, §2, §3, §4, §5, §6

B1: acyl-CoA synthase from M. algicola: acyl-CoA synthetase from Marinobacter algicola, SEQ ID NO: 2, Uniprot A6EZ54 (protein)
chain: MNSIFDKGLEPTDANNATLTPLDFLARTASVYPEYPAVIHGATRRNWQQTYERCRRLASALADRGVGKGDTVAAMLPNIPPMLECHFGIPMLGAVLNALNTRLDAKAIAFMLEHGEAKVLIADREFGDVINEAVGMLDNPPQVIDVNDPEFSGAGTQVSDLDYDAFVASGDPAFDWQMPADEWDAISLCYTSGTTGNPKGVVYHHRGAYENAMGNQAVWSMGMHPVYLWTLPMFHCNGWCFPWTITAFAGTHVCLRKVEPEKILQLISEHKVSHMCGAPIVLNTLLGASEAAKSSFSHTVQAMTAGAAPPAKVIEAIENMGFRVTHVYGLTEVYGPVTVCAWKSEWDDLPVEDRARIKARQGVRYHTLAGMMVGDPETMEAVPKDGNTIGEIFLRGNTVMKGYLKNPKATEEAFRGGWFHTGDLAVWHADGYAEIKDRLKDIIISGGENISTIEVEDVLYRHPDILEAAVVARPDEKWGETPCAFVTLKPEAGEVSEDDIIAFCRERMAKFKVPKTIVFSELPKTSTGKIQKFVLRDDAKKL
modifications: Marinobacter algicola DG893
As for B1, the “formation of 3-hydroxybutyryl-adenylate with ATP or ADP as co-substrate” value in the series on (R,S)-3-hydroxybutyrate [1] is listed as “able to catalyze the formation of 3-hydroxybutyryl-adenylate by using ATP or ADP as co-substrate”.

B2: AMP-dependent synthetase/ligase from Burkholderia sp.: AMP-dependent synthetase and ligase of Burkholderia sp., SEQ ID NO: 4, Uniprot R4WRJ4 (protein)
chain: MTHSEEIMTTPGIYDEGLPKTAANFAVMTPLTFIERAASVYPNRPAVVHGDVRRTWSETYARTRRLASALAARGIGVGDTVAVMLPNTPEMVEAHFGVPMTGAVLNALNTRLDAATLAFMLTHGEAKAVLVDREFSDVMRRALESVPQKLLVIDVDDSQYAGAGERIGEIEYEALLASGDPAYEWTPPSDEWNAICLNYTSGTTGNPKGVVYHHRGAYTNAVSNILEWDMPAHAVYLWTLPMFHCNGWCFPWTIAARAGVNVCLRRIDAKTVFDLIRNEGVTHYCGAPIVQNMLVNAPDELKAGIAQKVNAMVAGAAPPAAMIEGMERMGFQLTHVYGLTEVYGPATVCAHQAEWSELDIGERARLNARQGVRYHLQDAVTVRDPDTMQLVPPDGETIGEIMFRGNIAMKGYLKNAAATEEAFRGGWFHTGDLAVAYPDGYVRIKDRSKDIIISGGENISSIEVEDVLYRHPAVLAVAVVAKPDARWGETPCAFVELKTGVHVSGEELIAHCKQHLAGFKVPRAIEFCELPKTSTGKIQKFELRKRAGSVTAIDV
modifications: Burkholderia sp. RPE64
Consider B2, for which the “formation of 3-hydroxybutyryl-adenylate with ATP or ADP as co-substrate” value with (R,S)-3-hydroxybutyrate [1] is “able to catalyze the formation of 3-hydroxybutyryl-adenylate by using ATP or ADP as co-substrate”.

B3: AMP-dependent synthetase/ligase from Marinobacter aquaeolei (Marinobacter nauticus VT8) (protein)
chain: MTSIFDQGLEPRDANYAVQSPIDFIERTASVYPDYPAIIHGAIRRTWAETYDRCLRLASALKGRGIGRGDTVAVMLPNIPAMVECHFGIPMIGAVLNTLNVRLDAEAIAFMLEHGEAKVVIADREFGQVIKDAVRHLEHKPLVIDVDDPEYGEGVQVSDLDYEAFLQEGDPQFQWSFPDNEWDAISLNYTSGTTGNPKGVVYHHRGAYINALGNQTVWSMDMHPVYLWTLPMFHCNGWCFPWTITAMAGTHVCLRRVDPEKILQLIHDHQVTHMCGAPIVLNALLNASPEAKAGIDHEVKSMTAGAAPPAQVIGSIEEMGIKVTHVYGLTEVYGPVTVCAWKSEWDELPLHDRAKIKARQGVRYHTLGGTMVADPNTMQPVPKDGKTIGEIFLRGNTVMKGYLKNPTATEEAFRGGWFHTGDLAVWHEDGYMEIKDRLKDIIISGGENISTIEVEDTLYRHPAVLEAAVVARPDEKWGETPCAFITLKPEAGDVSEDDIINFCREHLARFKVPKTVVFTELPKTSTGKIQKFVLRDQAKDLN
For orientation: Km means the substrate concentration at which the rate is half of its maximum. The kcat is the number of substrate molecules converted per active site and unit of time at saturation. In the case of B3, the Propylene peak area in the series with (R,S)-3-hydroxybutyrate [2] is 0 arbitrary units. Further, the Km amounted to 2 mM in series [3]; 10 mM in series [4]; 3 mM in series [5]; 5 mM in series [6]; 4 mM in series [7]. The catalytic constant (kcat) was 0.03 s⁻¹ in series [3]; 0.007 s⁻¹ in series [4]; 0.023 s⁻¹ in series [5]; 0.04 s⁻¹ in series [6]; 0.012 s⁻¹ in series [7]. This molecule also came in with an Isobutene peak area in the series on 3-hydroxyisovalerate of 414 arbitrary units.
